Assay results from patent US20240270821A1, “GIP/GLP1/GCG TRI-RECEPTOR AGONISTS AND USES THEREOF” (priority 2023, published 2024).

T1: human GIP receptor (human) (UniProt P48546)
T1 sequence (looked up): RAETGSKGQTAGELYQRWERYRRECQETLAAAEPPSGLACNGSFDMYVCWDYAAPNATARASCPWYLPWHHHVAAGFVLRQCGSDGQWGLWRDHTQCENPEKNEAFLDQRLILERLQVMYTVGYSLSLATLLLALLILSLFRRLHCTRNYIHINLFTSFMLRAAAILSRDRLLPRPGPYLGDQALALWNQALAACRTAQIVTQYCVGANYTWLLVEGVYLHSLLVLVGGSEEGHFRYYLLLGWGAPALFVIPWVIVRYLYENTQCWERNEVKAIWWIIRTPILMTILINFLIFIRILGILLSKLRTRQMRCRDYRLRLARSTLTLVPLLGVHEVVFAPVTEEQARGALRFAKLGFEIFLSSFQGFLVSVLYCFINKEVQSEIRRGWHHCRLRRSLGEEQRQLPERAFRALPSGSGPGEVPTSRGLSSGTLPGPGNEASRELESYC


Tests used:
Assay in all cases: cell-based or functional assay
hGLP-1R = hGLP-1R (Homo sapiens, UniProt P43220)
[1] = target: T1, human GIP receptor (human)
[2] = target: human glucagon receptor (human) (UniProt P47871)
Chain of human glucagon receptor (human) (P47871 26-477): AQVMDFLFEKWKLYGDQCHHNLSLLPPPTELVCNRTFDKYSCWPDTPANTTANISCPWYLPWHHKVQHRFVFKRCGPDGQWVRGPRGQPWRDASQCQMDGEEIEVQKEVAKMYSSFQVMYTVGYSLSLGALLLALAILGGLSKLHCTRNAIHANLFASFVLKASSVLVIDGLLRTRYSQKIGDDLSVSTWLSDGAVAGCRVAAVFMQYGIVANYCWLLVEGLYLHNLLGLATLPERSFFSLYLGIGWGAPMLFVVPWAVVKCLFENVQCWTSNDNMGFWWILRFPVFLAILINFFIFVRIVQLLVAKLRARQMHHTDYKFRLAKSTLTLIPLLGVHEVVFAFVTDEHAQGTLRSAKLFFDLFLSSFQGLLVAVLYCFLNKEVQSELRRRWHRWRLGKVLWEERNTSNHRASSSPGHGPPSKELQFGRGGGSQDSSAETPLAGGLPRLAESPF

Chain of hGLP-1R (P43220 24-463): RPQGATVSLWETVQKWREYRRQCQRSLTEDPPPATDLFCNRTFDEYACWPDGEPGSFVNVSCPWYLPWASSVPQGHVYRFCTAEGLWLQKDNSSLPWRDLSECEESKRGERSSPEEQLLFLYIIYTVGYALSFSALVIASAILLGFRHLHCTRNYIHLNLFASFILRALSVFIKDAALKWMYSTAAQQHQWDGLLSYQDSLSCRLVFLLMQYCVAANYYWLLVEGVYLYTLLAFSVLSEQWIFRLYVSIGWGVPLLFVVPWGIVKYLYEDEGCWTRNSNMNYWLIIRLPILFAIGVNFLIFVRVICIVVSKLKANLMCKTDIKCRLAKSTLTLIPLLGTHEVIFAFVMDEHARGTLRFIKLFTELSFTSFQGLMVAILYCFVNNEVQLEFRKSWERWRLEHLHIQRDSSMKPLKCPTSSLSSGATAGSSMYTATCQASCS

| Binder | Relative cAMP EC50 (hGLP-1R) [nM] | cAMP Rel EC50 (1% HSA) (hGLP-1R) [nM] | Relative cAMP EC50 [1] [nM] | cAMP Rel EC50 (1% HSA) [1] [nM] | Relative cAMP EC50 [2] [nM] | cAMP Rel EC50 (1% HSA) [2] [nM] | cAMP Rel EC50, nM (in the presence of 1% HSA) (hGLP-1R) [nM] | cAMP Rel EC50, nM (in the presence of 1% HSA) [1] [nM] | cAMP Rel EC50, nM (in the presence of 1% HSA) [2] [nM] |
| --- | --- | --- | --- | --- | --- | --- | --- | --- | --- |
| YXQGTXTSDXXIXLDXKAQXNFIEXLQEGGPSSGEPPPEGTE (synthetic construct; SITE 2: note = 2-Aminoisobutyric Acid; SITE 6: note = alpha-methyl-2-fluoro-L-phenylalanine; SITE 10: note = 3-(4-Pyridyl)-L-alanine; SITE 11: note = alpha-methyl-L-serine; SITE 13: note = alpha-methyl-leucine; SITE 16: note = L-ornithine; SITE 17: note = Lysine is chemically mo) [Example 526] | 0.421 | 22.9 | 0.0364 | 2.12 | 8.62 | 530 |  |  |  |
| YXQGTXTSDXXIXLDXKAQXNFIEXLQEGGPSSGEPPPEGTGE (synthetic construct; SITE 2: note = 2-Aminoisobutyric Acid; SITE 6: note = alpha-methyl-2-fluoro-L-phenylalanine; SITE 10: note = 3-(4-Pyridyl)-L-alanine; SITE 11: note = alpha-methyl-L-serine; SITE 13: note = alpha-methyl-leucine; SITE 16: note = L-ornithine; SITE 17: note = Lysine is chemically mo) [Example 527] | 0.446 | 26.8 | 0.0386 | 2.6 | 6.99 | 580 |  |  |  |
| YXQGTXTSDXXIXLDXKAQXQFIEXLQEGGPSSGEPPPEGTE (synthetic construct; SITE 2: note = 2-Aminoisobutyric Acid; SITE 6: note = alpha-methyl-2-fluoro-L-phenylalanine; SITE 10: note = 3-(4-Pyridyl)-L-alanine; SITE 11: note = alpha-methyl-L-serine; SITE 13: note = alpha-methyl-leucine; SITE 16: note = L-ornithine; SITE 17: note = Lysine is chemically mo) [Example 528] | 0.434 | 24.3 | 0.0333 | 1.55 | 7 | 474 |  |  |  |
| YXQGTXTSDXXIXLDXKAQXQFIEXLQEGGPSSGEPPPEGTGE (synthetic construct; SITE 2: note = 2-Aminoisobutyric Acid; SITE 6: note = alpha-methyl-2-fluoro-L-phenylalanine; SITE 10: note = 3-(4-Pyridyl)-L-alanine; SITE 11: note = alpha-methyl-L-serine; SITE 13: note = alpha-methyl-leucine; SITE 16: note = L-ornithine; SITE 17: note = Lysine is chemically mo) [Example 529] | 0.467 | 24.5 | 0.0273 | 1.39 | 6.59 | 398 |  |  |  |
| YXQGTXTSDXXIXLDXKAQXXFIEYLSEGGPSSGEPPPSGTE (synthetic construct; SITE 2: note = 2-Aminoisobutyric Acid; SITE 6: note = alpha-methyl-2-fluoro-L-phenylalanine; SITE 10: note = 3-(4-Pyridyl)-L-alanine; SITE 11: note = alpha-methyl-L-serine; SITE 13: note = alpha-methyl-leucine; SITE 16: note = L-ornithine; SITE 17: note = Lysine is chemically mo) [Example 530] | 4.91 | 437 | 0.874 | 63.7 | 17.1 | 1280 |  |  |  |
| YXQGTXTSDXXILLDXKAQXXFIEYLIEGGPSSGEPPPSGTE (synthetic construct; SITE 2: note = 2-Aminoisobutyric Acid; SITE 6: note = alpha-methyl-2-fluoro-L-phenylalanine; SITE 10: note = 3-(4-Pyridyl)-L-alanine; SITE 11: note = alpha-methyl-L-serine; SITE 16: note = L-ornithine; SITE 17: note = Lysine is chemically modified through conjugation of the epsi) [Example 531] | 0.356 | 37.8 | 0.0694 | 5.2 | 3.79 | 465 |  |  |  |
| YXQGTXTSDXXIXLDXKAQXXFIEYLLEGGPSSGEPPPSGTE (synthetic construct; SITE 2: note = 2-Aminoisobutyric Acid; SITE 6: note = alpha-methyl-2-fluoro-L-phenylalanine; SITE 10: note = 3-(4-Pyridyl)-L-alanine; SITE 11: note = alpha-methyl-L-serine; SITE 13: note = alpha-methyl-leucine; SITE 16: note = L-ornithine; SITE 17: note = Lysine is chemically mo) [Example 532] | 0.577 | 47.3 | 0.0159 | 1.49 | 1.37 | 157 |  |  |  |
| YXQGTXTSDXXIXLDXKAQXXFIEXLTEGGPSSGEPPPSGTE (synthetic construct; SITE 2: note = 2-Aminoisobutyric Acid; SITE 6: note = alpha-methyl-2-fluoro-L-phenylalanine; SITE 10: note = 3-(4-Pyridyl)-L-alanine; SITE 11: note = alpha-methyl-L-serine; SITE 13: note = alpha-methyl-leucine; SITE 16: note = L-ornithine; SITE 17: note = Lysine is chemically mo) [Example 542] | 0.388 | 29.6 | 0.0336 | 1.69 | 5.03 | 256 |  |  |  |
| YXQGTXTSDXXIXLDXKAQXXFIEXLTEGGPSSGEPPPSGTGE (synthetic construct; SITE 2: note = 2-Aminoisobutyric Acid; SITE 6: note = alpha-methyl-2-fluoro-L-phenylalanine; SITE 10: note = 3-(4-Pyridyl)-L-alanine; SITE 11: note = alpha-methyl-L-serine; SITE 13: note = alpha-methyl-leucine; SITE 16: note = L-ornithine; SITE 17: note = Lysine is chemically mo) [Example 543] | 0.41 | 32 | 0.0319 | 1.88 | 4.56 | 300 |  |  |  |
| YXQGTXTSDXXIXLDXKAQXXFIEXLAEGGPSSGEPPPSGTE (synthetic construct; SITE 2: note = 2-Aminoisobutyric Acid; SITE 6: note = alpha-methyl-2-fluoro-L-phenylalanine; SITE 10: note = 3-(4-Pyridyl)-L-alanine; SITE 11: note = alpha-methyl-L-serine; SITE 13: note = alpha-methyl-leucine; SITE 16: note = L-ornithine; SITE 17: note = Lysine is chemically mo) [Example 544] | 0.623 | 43 | 0.041 | 2.4 | 2.71 | 171 |  |  |  |
| YXQGTXTSDXXIXLDXKAQXXFIEXLAEGGPSSGEPPPSGTGE (synthetic construct; SITE 2: note = 2-Aminoisobutyric Acid; SITE 6: note = alpha-methyl-2-fluoro-L-phenylalanine; SITE 10: note = 3-(4-Pyridyl)-L-alanine; SITE 11: note = alpha-methyl-L-serine; SITE 13: note = alpha-methyl-leucine; SITE 16: note = L-ornithine; SITE 17: note = Lysine is chemically mo) [Example 545] | 0.602 | 40.2 | 0.0432 | 2.74 | 2.71 | 180 |  |  |  |
| YXQGTXTSDXXILLDXKAQXXFIEXLQEGGPSSGEPPPEGAE (synthetic construct; SITE 2: note = 2-Aminoisobutyric Acid; SITE 6: note = alpha-methyl-2-fluoro-L-phenylalanine; SITE 10: note = 3-(4-Pyridyl)-L-alanine; SITE 11: note = alpha-methyl-L-serine; SITE 16: note = L-ornithine; SITE 17: note = Lysine is chemically modified through conjugation of the epsi) [Example 546] | 0.517 | 34.4 | 0.25 | 11.9 | 3.67 | 225 |  |  |  |
| YXQGTFTSDFSKXLDKKAQXAFIEYLLEGGPSSGAPPPXEG (synthetic construct; SITE 2: note = 2-Aminoisobutyric Acid; SITE 13: note = alpha-methyl-leucine; SITE 17: note = Lysine is chemically modified through conjugation of the epsilon-amino group of the Lysine side chain with (2-[2-(2-Amino-ethoxy)-ethoxy]-acetyl)-(gamma-Glu)-CO-(CH2) 18-CO2H; SITE 20: n) [Example 52] | 5.18 |  | 0.449 |  | 5.84 |  | 1250 | 111 | 1740 |
| YXQGTFTSDFSKXLDKKAQXAFIEYLLEGGPSSGAPPPXGE (synthetic construct; SITE 2: note = 2-Aminoisobutyric Acid; SITE 13: note = alpha-methyl-leucine; SITE 17: note = Lysine is chemically modified through conjugation of the epsilon-amino group of the Lysine side chain with (2-[2-(2-Amino-ethoxy)-ethoxy]-acetyl)-(gamma-Glu)-CO-(CH2) 18-CO2H; SITE 20: n) [Example 53] | 3.31 |  | 0.518 |  | 4.19 |  | 1030 | 113 | 1780 |
